We go through 1 molecule from US5770384, “Method for determining compound interaction with E2 binding proteins” (New England Medical Center Hospitals, Inc, dated 1998).

This assay addresses BPV-1 E2 protein, wild type, full length (amino acids 1 to 410) (bovine papillomavirus (BPV-1), UniProt P03122). As to the kind of experiment: alternative two hybrid assay in yeast, LexA/LacZ reporter pSH18-34, GAL/XGAL plate.

B1: LexA DBD alone (YEplac181GLexA202) (other)
chain: MKALTARQQEVFDLIRDHISQTGMPPTRAEIAQRLGFRSPNAAEEHLKALARKGVIEIVSGASRGIRLLQEEEEGLPLVGRVAAGEPLLAQQHIEGHYQVDPSLFKPNADFLLRVSGMSMKDIGIMDGDLLAVHKTQDVRNGQVVVARIDDEVTVKRLKKQGNKVELLPENSEFKPIVVDLRQQSFTIEGLAVGVIRNGDWL
On to B1, for which the binding result is listed as “no binding”.
